Data as given in patent publication US20220348651A1, “ENTPD2 ANTIBODIES, COMBINATION THERAPIES, AND METHODS OF USING THE ANTIBODIES AND COMBINATION THERAPIES” (Novartis AG, priority 2019, published 2022).
Residue numbers refer to the chain shown, from its start. Each block holds one molecule with its values, some of them ahead of it.

What was measured:
mouse ENTPD2 = target: T1, mouse ENTPD2 (Mus musculus, UniProt O55026); assay: Antibody specificity: binding to mouse ENTPD2; settings: for BIACore KD: Mouse ENTPD2
T1 construct: residues 29-462 of mouse or rat ENTPD2 (the extracellular domain); mouse IgK signal peptide (N); His6; made in house; host or cells: FreeStyle 293-F cells, transient transfection
T1 sequence (O55026 29-462): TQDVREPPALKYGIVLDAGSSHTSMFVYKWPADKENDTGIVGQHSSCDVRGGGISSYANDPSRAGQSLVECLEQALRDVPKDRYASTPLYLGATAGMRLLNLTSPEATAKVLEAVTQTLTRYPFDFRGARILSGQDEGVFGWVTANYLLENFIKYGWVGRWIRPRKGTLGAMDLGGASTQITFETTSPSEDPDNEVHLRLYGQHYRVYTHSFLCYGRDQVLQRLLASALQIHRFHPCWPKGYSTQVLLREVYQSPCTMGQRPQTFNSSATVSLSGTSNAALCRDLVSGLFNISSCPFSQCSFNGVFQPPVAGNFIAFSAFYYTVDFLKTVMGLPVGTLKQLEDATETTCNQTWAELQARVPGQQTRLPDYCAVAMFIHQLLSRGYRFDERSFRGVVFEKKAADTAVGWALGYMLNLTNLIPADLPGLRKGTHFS
Excerpt: Antibody specificity for mAbl-mAblO was confirmed. […] Antibodies mAb8, mAb9, and mAb10 show weak affinity to mouse ENTPD2. None of the selected antibodies bind to rat ENTPD2.

[1] = system: cynomologus (cyno) ENTPD2; assay: Biacore (SPR) affinity to cyno ENTPD2 ECD; format: binding, cynomolgus monkey; settings: 25° C.
Chain of cynomologus (cyno) ENTPD2 (as listed by the source): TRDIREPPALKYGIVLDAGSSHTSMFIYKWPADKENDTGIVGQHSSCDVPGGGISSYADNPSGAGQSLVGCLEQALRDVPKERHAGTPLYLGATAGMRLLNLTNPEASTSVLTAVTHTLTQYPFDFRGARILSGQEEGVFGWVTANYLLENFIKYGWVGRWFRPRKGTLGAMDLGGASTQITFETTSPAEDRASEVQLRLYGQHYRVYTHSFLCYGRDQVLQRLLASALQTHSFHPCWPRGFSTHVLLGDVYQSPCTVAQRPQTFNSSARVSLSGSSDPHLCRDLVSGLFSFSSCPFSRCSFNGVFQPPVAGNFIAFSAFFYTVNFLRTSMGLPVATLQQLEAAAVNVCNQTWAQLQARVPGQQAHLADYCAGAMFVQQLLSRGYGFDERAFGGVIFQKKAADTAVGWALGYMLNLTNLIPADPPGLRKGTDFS
Experimental: (§1) Biacore Screening: Affinity was measured by determining the kinetic rate constants using surface plasmon resonance (SPR) on a Biacore T200 or T100 with the T200 sensitivity upgrade instrument (Biacore, GE Healthcare). Antibodies were captured on CM5 sensor chips (Biacore, GE Healthcare) prepared with a mouse anti-human IgG Fc antibody (ThermoFisher catalogue #05-4200) amine coupled to the surface. […] ENTPD2 analytes were allowed to associate for 180 s and dissociate for up to 1800 s depending on the off-rate of the antibody at a flow rate of 30 μL/min. The running buffer was PBS pH 7.2 (prepared from a Corning 10X stock, cat#46-013-CM)+0.05% Tween 20. Regeneration was accomplished with 30 s injections of 3 or 4 M MgCl2 to remove all the captured antibody and remaining complex from the surface, after which fresh antibody was captured. The raw data were analyzed using Biacore T200 Evaluation Software version 1.0 and fit to a 1:1 binding model, with all parameters set to fit globally except for RI, which was set to fit locally.

human ENTPD2 = target: T2, human ENTPD2 (Homo sapiens, UniProt Q9Y5L3); assay: Biacore (SPR) affinity to human ENTPD2 ECD; format: binding; settings: 25° C.
T2 construct: residues 29-462 of human or cyno ENTPD2 were cloned into expression vector; GP67 signal peptide (N); made in house; host or cells: High Five (Trichoplusia ni) insect cells, baculovirus
T2 sequence (Q9Y5L3 29-462): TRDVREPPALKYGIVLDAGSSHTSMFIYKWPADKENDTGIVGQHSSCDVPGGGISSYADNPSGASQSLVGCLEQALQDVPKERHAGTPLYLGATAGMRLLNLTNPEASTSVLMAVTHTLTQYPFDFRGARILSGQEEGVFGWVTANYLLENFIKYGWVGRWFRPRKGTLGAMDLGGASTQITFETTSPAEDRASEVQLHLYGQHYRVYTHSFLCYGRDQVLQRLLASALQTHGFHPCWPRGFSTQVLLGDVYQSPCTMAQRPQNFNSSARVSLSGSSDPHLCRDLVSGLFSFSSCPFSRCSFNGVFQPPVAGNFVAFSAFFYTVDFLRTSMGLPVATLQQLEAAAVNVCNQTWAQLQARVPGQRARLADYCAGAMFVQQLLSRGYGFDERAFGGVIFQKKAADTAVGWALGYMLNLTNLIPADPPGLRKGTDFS
Experimental: as §1

B3: mAb4: humanized anti-human ENTPD2 antibody from mAb16; VH SEQ ID NO: 46, VL SEQ ID NO: 57 (antibody, V domains shown)
VH: QIQLQESGPGLVKPSQTLSLTCTVSGYSITSGYYWNWIRQHPGKGLEWIGYISYDADNNYNPSLKNRVTISRDTSKNQFSLKLSSVTAADTAVYYCAGGYYRYGLGSYRGSYYYVMDYWGQGTTVTVSS
VL: ETVLTQSPATLSVSPGERATISCKASQSVDYEGHSYMNWYQQKPGQAPRLLIYAASNLESGIPARFSGSGSGTDFTLTISSVEPEDAATYYCQQSNEDPPTFGGGTKLEIK
- BIACore KD (mouse ENTPD2): No binding
- ka [1]: 140000 M⁻¹ s⁻¹
- kd [1]: 0.0057 s⁻¹
- ka (human ENTPD2): 300000 M⁻¹ s⁻¹
- kd (human ENTPD2): 0.00022 s⁻¹

B4: mAb5: humanized anti-human ENTPD2 antibody from mAb16; VH SEQ ID NO: 46, VL SEQ ID NO: 64 (antibody, V domains shown)
VH: B3 VH
VL: B3 VL with E32D, H34N
- BIACore KD (mouse ENTPD2): No binding
- ka [1]: 290000 M⁻¹ s⁻¹
- kd [1]: 0.003 s⁻¹
- ka (human ENTPD2): 270000 M⁻¹ s⁻¹
- kd (human ENTPD2): 0.00016 s⁻¹

B6: mAb3: humanized anti-human ENTPD2 antibody from mAb17; VH SEQ ID NO: 33, VL SEQ ID NO: 29 (antibody, V domains shown)
VH: QVQLVQSGAEVVKPGASVKISCKASGYTFTDYNMDWVKQAPGQRLEWIGDINPKYDISTYNQQFKGKATITVDTSASTAYMELSSLRSEDTAVYYCARRGFFLYYGINYYYFDVWGQGTLVTVSS
VL: EIVLTQSPATLSASPGERITLSCSASSSVSYIHWYQQKPGQAPRLLIYSTSNLASGIPARFSGSGSGTFYTLTISSVEPEDAAVYYCHQWSSYPWTFGGGTKLEIK
- BIACore KD (mouse ENTPD2): No binding
- ka [1]: 450000 M⁻¹ s⁻¹
- kd [1]: 0.00098 s⁻¹
- ka (human ENTPD2): 130000 M⁻¹ s⁻¹
- kd (human ENTPD2): 0.00016 s⁻¹

B7: mAb2: humanized anti-human ENTPD2 antibody from mAb17; VH SEQ ID NO: 25, VL SEQ ID NO: 29 (antibody, V domains shown)
VH: B6 VH with T74K
VL: B6 VL
- BIACore KD (mouse ENTPD2): No binding
- Kd [1]: 2.8 nM
- ka [1]: 430000 M⁻¹ s⁻¹
- kd [1]: 0.0012 s⁻¹
- Kd (human ENTPD2): 1.7 nM
- ka (human ENTPD2): 110000 M⁻¹ s⁻¹
- kd (human ENTPD2): 0.00018 s⁻¹

Now from value to molecule, other results behind:

- affinity / cross-reactivity to mouse ENTPD2 (mouse ENTPD2): weak affinity
- kd [1]: 0.021 s⁻¹
- ka (human ENTPD2): 380000 M⁻¹ s⁻¹
- kd (human ENTPD2): 0.0003 s⁻¹
B1: mAb9: anti-human ENTPD2 antibody of Table 1; VH SEQ ID NO: 115, VL SEQ ID NO: 125 (antibody, V domains shown)
VH: QVQLVQSGAEVKKPGSSVKVSCKASGGTFDSYAVSWVRQAPGQGLEWMGRIVPWLGHTQYAQKFQGRVTITADESTSTAYMELSSLRSEDTAVYYCARESPGYRYSFDVWDQGTLVTVSS
VL: SYELTQPLSVSVALGQTARITCSGDAIGEKYVYWYQQKPGQAPVLVIYDDNNRPSGIPERFSGSNSGNTATLTISRAQAGDEADYYCASYDLQQARWVFGGGTKLTVL
- ka [1]: 990000 M⁻¹ s⁻¹

- affinity / cross-reactivity to mouse ENTPD2 (mouse ENTPD2): weak affinity
- BIACore KD (mouse ENTPD2): Weak binding
- kd [1]: 0.018 s⁻¹
- ka (human ENTPD2): 340000 M⁻¹ s⁻¹
- kd (human ENTPD2): 0.00024 s⁻¹
B2: mAb10: anti-human ENTPD2 antibody of Table 1; VH SEQ ID NO: 132, VL SEQ ID NO: 125 (antibody, V domains shown)
VH: B1 VH with H57F, Q59R
VL: B1 VL
- ka [1]: 1.2e+06 M⁻¹ s⁻¹

- affinity / cross-reactivity to mouse ENTPD2 (mouse ENTPD2): weak affinity
- BIACore KD (mouse ENTPD2): Weak binding
- kd [1]: 0.024 s⁻¹
- ka (human ENTPD2): 290000 M⁻¹ s⁻¹
- kd (human ENTPD2): 0.00094 s⁻¹
B5: mAb8: anti-human ENTPD2 antibody of Table 1; VH SEQ ID NO: 91, VL SEQ ID NO: 102 (antibody, V domains shown)
VH: QVQLQQSGPGLVKPSQTLSLTCAISGDSVSSSSAAWNWIRQSPSRGLEWLGRIYYRSKWYNDYAVSVKSRITINPDTSKNQFSLQLNSVTPEDTAVYYCARGSYVTSSYEGFDYWGQGTLVTVSS
VL: SYELTQPLSVSVALGQTARITCSGDNLPEKYAYWYQQKPGQAPVLVIYDDNKRPSGIPERFSGSNSGNTATLTISRAQAGDEADYYCQSYGKWGWTWVFGGGTKLTVL
- ka [1]: 300000 M⁻¹ s⁻¹
